Source: patent US20150353933, “APTAMER AGAINST MIDKINE AND APPLICATIONS THEREOF” (RIBOMIC INC., published 2015)

T1: midkine (AP-MK) (Homo sapiens, UniProt P21741 P21741:23-143)
T1 chain: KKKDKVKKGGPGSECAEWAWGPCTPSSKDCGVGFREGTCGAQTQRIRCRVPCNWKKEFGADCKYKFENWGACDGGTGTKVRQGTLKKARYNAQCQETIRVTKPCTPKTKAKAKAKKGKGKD

T2: midkine (MK) (Homo sapiens, UniProt P21741 P21741:21-143)
T2 sequence: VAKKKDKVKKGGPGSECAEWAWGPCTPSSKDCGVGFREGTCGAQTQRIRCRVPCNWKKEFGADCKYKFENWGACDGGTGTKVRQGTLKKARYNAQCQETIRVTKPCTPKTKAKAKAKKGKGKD

B1: SEQ ID NO: 7-3 (ssRNA)
RNA: GCCAUCGCAAUGGUGAGUGGUUUAUCCGCCUGCGCAUGGC
modifications: 5' 40PEG2ts; 3' idT; 2'-OMe at 1-13,19,20,23,28,30-40; 2'-F at U14,U18,U21,U22,U25,C26,C27,C29; 2'-OH at G15,A16,G17,A24
B2: SEQ ID NO: 7-4 (ssRNA)
RNA: B1 RNA
modifications: 5' 40PEG2ts; 3' idT; 2'-OMe at C2,C3,C40 and all purines except G15,A16,G17,A24 (2'-OH); 2'-F at all other pyrimidines
B3: SEQ ID NO: 12 (ssRNA)
RNA: CGCAAUGGUGAGUGGUUUAUCCGCCUGCG
modifications: 3' idT; 2'-OMe at 1-8,14,15,18,23,25-29; 2'-F at U9,U13,U16,U17,U20,C21,C22,C24; 2'-OH at G10,A11,G12,A19
B4: SEQ ID NO: 7-9 (ssRNA)
RNA: B1 RNA
modifications: 3' idT; 2'-OMe at 1-13,16,17,19,20,23,28,30-40; 2'-F at U14,U18,U21,U22,U25,C26,C27,C29; 2'-OH at G15,A24
B5: SEQ ID NO: 7-7 (ssRNA)
RNA: B1 RNA
modifications: 3' idT; 2'-OMe at 1-13,16,19,20,23,27,28,30-40; 2'-F at U14,U18,U21,U22,U25,C26,C29; 2'-OH at G15,G17,A24
B6: SEQ ID NO: 7-5 (ssRNA)
RNA: B1 RNA
modifications: 3' idT; 2'-OMe at 1-13,16,19,20,23,28,30-40; 2'-F at U14,U18,U21,U22,U25,C26,C27,C29; 2'-OH at G15,G17,A24
B7: SEQ ID NO: 7-6 (ssRNA)
RNA: B1 RNA
modifications: 3' idT; 2'-OMe at 1-14,16,19,20,23,28,30-40; 2'-F at U18,U21,U22,U25,C26,C27,C29; 2'-OH at G15,G17,A24
B8: SEQ ID NO: 7-8 (ssRNA)
RNA: B1 RNA
modifications: 3' idT; 2'-OMe at 1-13,16,19,20,23,28-40; 2'-F at U14,U18,U21,U22,U25,C26,C27; 2'-OH at G15,G17,A24
B9: SEQ ID NO: 10 (ssRNA)
RNA: GCUCGCAAUGGUGAGUGGUUUAUCCGCCUGCGCAGC
modifications: 3' idT; 2'-OMe at 1-11,17,18,21,26,28-36; 2'-F at U12,U16,U19,U20,U23,C24,C25,C27; 2'-OH at G13,A14,G15,A22
B10: SEQ ID NO: 9 (mixed)
RNA: GCCAUCGCAAUGGUGAGUGGUUUAUCCGCCUGCGCAUGGCAAAAAAAAAAAAAAAA
modifications: 2'-OMe at 1-3 and 38-40; 2'-F at all other pyrimidines; 3' 16-nt poly dA (DNA)
B11: SEQ ID NO: 9-4 (mixed)
RNA: B10 RNA
modifications: 2'-OMe at C2,C3,C40 and RNA purines except G15,A16,A24 (2'-OH); 2'-F at all other pyrimidines; 3' 16-nt poly dA (DNA)
B12: SEQ ID NO: 9-3 (mixed)
RNA: B10 RNA
modifications: 2'-OMe at C2,C3,C40 and RNA purines except G15,G17,A24 (2'-OH); 2'-F at all other pyrimidines; 3' 16-nt poly dA (DNA)
B13: SEQ ID NO: 9-5 (mixed)
RNA: B10 RNA
modifications: 2'-OMe at C2,C3,C40 and RNA purines except G15,A16,G17 (2'-OH); 2'-F at all other pyrimidines; 3' 16-nt poly dA (DNA)
B14: SEQ ID NO: 9-1 (mixed)
RNA: B10 RNA
modifications: 2'-OMe at C2,C3,C40 and RNA purines except G15,A16,G17,A24 (2'-OH); 2'-F at all other pyrimidines; 3' 16-nt poly dA (DNA)

Target: T1, midkine (AP-MK)
Experiment: inhibition; AP-MK binding to TNB1 cells
Details: tags: alkaline phosphatase fusion, APtag-5 vector (GenHunter), 293T culture supernatant
Procedure: (§1) Using the above-mentioned AP-MK, a binding inhibitory experiment relative to TNB1 cell, which is a human neuroblastoma cell, was performed. TNB1 cells were seeded at 1×10⁵ cells/well on a 6-well plate coated with collagen I. The next day, the cells were washed with 1 mL of HBHA (HBSS+0.5 mg/mL BSA+20 mM HEPES pH 7.0), 1 U/mL AP or AP-MK, and further, the aptamer shown in SEQ ID NO: 7-1 at a final concentration of 100 nM were added and the mixture was maintained at room temperature for 90 min. After washing 5 times with 1 mL of HBHA, 200 μL of Cell Lysis Buffer (manufactured by GenHunter) was added and the mixture was stirred for 5 min. The cells were scraped with a Scraper and placed in an Eppendorf tube, vortexed for 10 sec and centrifuged at 15000 rpm for 2 min. The supernatant was recovered, and heated at 65° C. for 10 min to inactivate endogenous AP. Using 50 μL, color development was performed in the same manner as above (15 min) and the activity of AP was calculated.
(§2) An altered form of SEQ ID NO: 7-1 was produced, and AP-MK binding inhibitory experiment was performed using HepG2 and TNB1 cells and in the same manner as above. The sequences of the altered forms actually produced are shown below. While Poly dA for BIAcore measurement is added to the 3′-terminus of the aptamers shown in SEQ ID NO: 9 and SEQ ID NO: 9-1-5, an influence on the activity is not expected. The 50% inhibitory concentration (IC₅₀) was determined from the concentrations at two, above and below points sandwiching the 50% inhibitory activity (Table 2).

Binder	IC50 [nM]
GCCAUCGCAAUGGUGAGUGGUUUAUCCGCCUGCGCAUGGC (ssRNA, 2'-OMe at 1-3 and 38-40; 2'-F at all other pyrimidines; other purines 2'-OH) [SEQ ID NO: 7-1]	18
B1	11
GCCAUCGCAAUGGUGAGUGGUUUAUCCGCCUGCGCAUGGC (ssRNA, 5' 40PEG2ts; 3' idT; 2'-OMe at 1-3 and 38-40; 2'-F at all other pyrimidines) [SEQ ID NO: 7-2]	26
B2	18

Target: T1, midkine (AP-MK)
Experiment: inhibition; AP-MK binding to HepG2 cells
Details: tags: alkaline phosphatase fusion, APtag-5 vector (GenHunter), 293T culture supernatant
Procedure: as §1, §2

Binder	IC50 [nM]
B3	< 2
GCCAUCGCAAUGGUGAGUGGUUUAUCCGCCUGCGCAUGGC (ssRNA, 2'-OMe at 1-3 and 38-40; 2'-F at all other pyrimidines; other purines 2'-OH) [SEQ ID NO: 7-1]	6
B4	4.7
B5	< 2
B6	< 2
B1	1.7
GCCAUCGCAAUGGUGAGUGGUUUAUCCGCCUGCGCAUGGC (ssRNA, 5' 40PEG2ts; 3' idT; 2'-OMe at 1-3 and 38-40; 2'-F at all other pyrimidines) [SEQ ID NO: 7-2]	4.9
B7	< 2
B2	3.6
B8	< 2
B9	< 2
B10	3.3
B11	4.1
B12	3
B13	19
B14	1.6

Target: T1, midkine (AP-MK)
Experiment: inhibition; AP-MK binding to HepG2, 500 nM aptamer
Details: tags: alkaline phosphatase fusion, APtag-5 vector (GenHunter), 293T culture supernatant
Procedure: as §1
An experiment similar to the above was performed using HepG2 cells which are human liver cancer-derived cells. It is already known that MK is deeply involved in the growth and inhibition of apoptosis of HepG2 cells (Ohuchida et al., Cancer 100, 2430-2436, 2004; Dai et al., World J. Gastroenterol. 15, 1966-1972, 2009). When the aptamer was added to the system, the binding of AP-MK and HepG2 was inhibited (Table 1).

Binder	activity [% inhibition]
GCCAUCGCAAUGGUGAGUGGUUUAUCCGCCUGCGCAUGGC (ssRNA, 2'-OMe at 1-3 and 38-40; 2'-F at all other pyrimidines; other purines 2'-OH) [SEQ ID NO: 7-1]	93

The binders below were run against T2, midkine (MK) (assay: SPR; confirmed MK binding, as in Example 3). Details: tags: produced in yeast.
Procedure: The binding activities of the oligonucleotides shown by SEQ ID NO:1 to 6 obtained in Examples 1 and 2 for MK were evaluated by a surface plasmon resonance method. The measurements were performed using BIAcore2000, manufactured by BIAcore. The sensor chip used was the SA chip, which had streptavidin immobilized thereon. Bound thereto was about 1000 RU of a 16-nucleotide Poly dT with biotin bound to the 5′ end thereof. […] 70 μL of MK for analyte, prepared at 0.5 μM, was injected.
Those aptamers were evaluated by the surface plasmon resonance method in the same manner as in Example 3, and they were confirmed to have MK binding activity.

Binder	binding result
GCCAUCGCAAUGGUGAGUGGUUUAUCCGCCUGCGCAUGGC (ssRNA, 2'-OMe at 1-3 and 38-40; 2'-F at all other pyrimidines; other purines 2'-OH) [SEQ ID NO: 7-1]	binds
